Reference: patent publication US20230183334A1, “THERAPEUTIC ANTIBODY FORMULATION” (published 2023)

Target: T1, IL-17A (human, UniProt Q16552)
T1 sequence: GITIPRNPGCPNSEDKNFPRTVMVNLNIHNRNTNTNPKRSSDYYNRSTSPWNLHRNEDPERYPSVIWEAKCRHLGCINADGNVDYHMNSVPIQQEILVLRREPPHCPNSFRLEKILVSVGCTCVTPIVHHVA
Assay: cell-based or functional assay

- Relative potency of Formulation A (% relative to Formulation B; ratio of EC50s), 1 month at 5° C.: 101%
- Relative potency of Formulation A (% relative to Formulation B; ratio of EC50s), 1 month at 25° C.: 98%
- Relative potency of Formulation A (% relative to Formulation B; ratio of EC50s), 1 month at 35° C.: 101%
- Relative potency of Formulation A (% relative to Formulation B; ratio of EC50s), 6 months at 5° C.: 103%
- Relative potency of Formulation A (% relative to Formulation B; ratio of EC50s), 12 months at 5° C.: 98%
B1: ixekizumab (antibody, V domains shown)
VH: QVQLVQSGAEVKKPGSSVKVSCKASGYSFTDYHIHWVRQAPGQGLEWMGVINPMYGTTDYNQRFKGRVTITADESTSTAYMELSSLRSEDTAVYYCARYDYFTGTGVYWGQGTLVTVSS
VL: DIVMTQTPLSLSVTPGQPASISCRSSRSLVHSRGNTYLHWYLQKPGQSPQLLIYKVSNRFIGVPDRFSGSGSGTDFTLKISRVEAEDVGVYYCSQSTHLPFTFGQGTKLEIKR
